# From patent US7272508B2, “Small molecule mimetics of erythropoietin” (The Scripps Research Institute, priority 1996, dated 2007)
# Positions of bridges follow the written chain, without caps; N, C: chain ends. No end group written: not given here.
# T1: EBP (extracellular fragment of human EPO receptor, residues 1-225) (Homo sapiens, UniProt P19235)
# T1 construct: consisting of residues 1-225, was expressed in Escherichia coli; made in house; host or cells: Escherichia coli
# T1 sequence (P19235 25-249): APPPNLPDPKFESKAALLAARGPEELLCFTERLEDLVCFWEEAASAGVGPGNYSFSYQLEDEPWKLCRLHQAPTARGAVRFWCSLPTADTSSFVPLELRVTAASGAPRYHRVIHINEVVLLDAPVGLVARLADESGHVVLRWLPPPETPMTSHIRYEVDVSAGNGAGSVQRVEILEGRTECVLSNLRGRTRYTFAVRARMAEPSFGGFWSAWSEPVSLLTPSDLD
# T2: EPO receptor (Homo sapiens, UniProt P19235)
# T2 sequence (P19235 25-508): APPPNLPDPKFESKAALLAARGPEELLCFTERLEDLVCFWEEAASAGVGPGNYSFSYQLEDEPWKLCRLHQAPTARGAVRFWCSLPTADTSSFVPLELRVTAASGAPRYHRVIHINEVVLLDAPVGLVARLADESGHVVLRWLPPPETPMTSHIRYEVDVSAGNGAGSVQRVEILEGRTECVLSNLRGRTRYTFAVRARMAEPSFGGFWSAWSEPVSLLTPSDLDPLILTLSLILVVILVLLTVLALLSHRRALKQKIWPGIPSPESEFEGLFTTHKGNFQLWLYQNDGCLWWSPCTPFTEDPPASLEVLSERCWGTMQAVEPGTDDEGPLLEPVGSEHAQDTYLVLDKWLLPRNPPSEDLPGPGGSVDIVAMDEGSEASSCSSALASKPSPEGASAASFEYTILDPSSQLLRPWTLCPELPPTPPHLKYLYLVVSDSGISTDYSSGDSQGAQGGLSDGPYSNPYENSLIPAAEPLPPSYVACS
# B1: EPO binding protein (EBP), extracellular fragment of human EPO receptor, residues 1-225 (receptor, UniProt P19235 25-249, looked up)
# chain: APPPNLPDPKFESKAALLAARGPEELLCFTERLEDLVCFWEEAASAGVGPGNYSFSYQLEDEPWKLCRLHQAPTARGAVRFWCSLPTADTSSFVPLELRVTAASGAPRYHRVIHINEVVLLDAPVGLVARLADESGHVVLRWLPPPETPMTSHIRYEVDVSAGNGAGSVQRVEILEGRTECVLSNLRGRTRYTFAVRARMAEPSFGGFWSAWSEPVSLLTPSDLD
# notes: range 1-225; they probably count on the mature receptor without signal peptide; Two EBP molecules stand in the asymmetric unit with two peptides; also called EBP1; EBP2
# Tests used:
# [1] = biological target: T1, EBP (extracellular fragment of human EPO receptor, residues 1-225); assay: DPDPB crosslinking of EBP in solution (peptide-dependent dimerization); format: biochemical; details: co-incubation of EMP1, DPDPB and EBP; no significant dimer in the absence of peptide
# Experimental: To explore the interaction of EMP1 with EBP in solution we employed a bifunctionalsulphydryl reactive crosslinker DPDPB, [1,4-di-(2′-pyridyldithio propionamido) butane], in an attempt to stabilize a peptide-dependent dimeric structure. […] A dimeric EBP product is formed by co-incubation of EMP1, DPDPB and EBP. The amount of dimeric product increases with peptide concentration and no significant dimer product is observed in the absence of peptide. DPDPB-crosslinked products formed through disulfide-exchange reactions should be readily reversible by reduction as is seen for the covalently-linked EMP1-mediated dimer. […] The Cys^181 residues in D2 of the EBP dimer are 20.7 Å apart (Sγ-Sγ distance) which approximates the 16 Å length (and approximately 2 Å in bond length at each end) of the DPDPB cross-linker.
# EPO receptor = biological target: T2, EPO receptor; assay: receptor binding assays, competition with EPO
# [2] = test system: cell lines engineered to be responsive to EPO; assay: cellular proliferation of cell lines engineered to be responsive to EPO; format: cell-based
# [3] = test system: nascent red blood cell production; assay: in vivo assays of nascent red blood cell production; details: mice; two different in vivo assays of nascent red blood cell production
# EPO responsive cells = assay: phosphorylation events and cell cycle progression in EPO responsive cells; format: cell-based
# [4] = biological target: the molecule itself; assay: DPDPB sulphydryl crosslinking of EBP in solution
# [5] = biological target: B1; assay: DPDPB crosslinking in solution; dimeric product increases with peptide concentration
molecule,measurement,setting,value
GGTYSCHFGPLTWVCKPQGG (disulfide 6-15 (inferred)) [EMP1],formation of dimeric EBP product,[1],mediates formation of a soluble EBP dimer complex in solution
same,competition with EPO in receptor binding assays,EPO receptor,competes with EPO
same,induction of cellular proliferation,[2],induces cellular proliferation
same,erythropoietic effects,[3],significant erythropoietic effects
same,cascade of phosphorylation events and cell cycle progression,EPO responsive cells,induce a similar cascade of phosphorylation events and cell cycle progression
B1,binding result,[4],no binding
"GGTYSCHFGPLTWVCKPQGG (disulfide 6-15, also called RWJ 61233; peptide-2) [EMP1 (EPO Mimetic Peptide 1)]",binding result,[5],binds
